From publication doi:10.1101/2023.12.22.573000

Target: T1, RIG-I (recombinant) (human? (GeneID 23586), UniProt O95786 1-925)
T1 sequence: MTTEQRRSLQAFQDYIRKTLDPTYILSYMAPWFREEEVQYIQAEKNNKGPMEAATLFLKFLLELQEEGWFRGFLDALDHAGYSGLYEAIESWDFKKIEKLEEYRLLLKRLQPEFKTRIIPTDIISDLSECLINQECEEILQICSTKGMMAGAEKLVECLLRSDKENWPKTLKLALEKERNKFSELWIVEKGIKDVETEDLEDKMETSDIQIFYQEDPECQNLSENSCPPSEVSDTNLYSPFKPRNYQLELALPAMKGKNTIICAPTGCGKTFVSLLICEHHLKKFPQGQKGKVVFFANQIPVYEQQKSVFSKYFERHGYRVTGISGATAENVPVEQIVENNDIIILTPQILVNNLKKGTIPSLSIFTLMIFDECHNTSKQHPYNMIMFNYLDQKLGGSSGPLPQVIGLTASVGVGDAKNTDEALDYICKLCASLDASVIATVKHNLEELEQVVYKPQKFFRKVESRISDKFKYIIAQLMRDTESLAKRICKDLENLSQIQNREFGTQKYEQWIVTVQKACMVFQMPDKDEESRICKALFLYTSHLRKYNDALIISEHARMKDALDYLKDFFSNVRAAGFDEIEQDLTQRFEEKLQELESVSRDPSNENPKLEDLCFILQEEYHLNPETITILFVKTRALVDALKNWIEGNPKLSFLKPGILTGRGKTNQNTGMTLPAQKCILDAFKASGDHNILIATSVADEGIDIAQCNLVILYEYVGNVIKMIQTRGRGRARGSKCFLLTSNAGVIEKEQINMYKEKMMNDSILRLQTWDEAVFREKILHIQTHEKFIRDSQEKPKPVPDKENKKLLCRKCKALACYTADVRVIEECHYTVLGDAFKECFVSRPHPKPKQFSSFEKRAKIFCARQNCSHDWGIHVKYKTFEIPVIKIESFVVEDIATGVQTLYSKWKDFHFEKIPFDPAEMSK
Assay: EMSA

B1: 5'-pppG synthetic 24 bp dsRNA (dsRNA)
RNA 1: GGCAAAAGCAGGGUGACAAAGACA
RNA 2: UGUCUUUGUCACCCUGCUUUUGCC
modifications: 5'-ppp on sense strand only
  Kd: 940 pM
